The values below come from US20050214309A1, “Methods and compositions for modulating transcription factor activity” (published 2005).

The target in this data set is T1, ATF1 (Homo sapiens, UniProt P18846 SEQ:1-271).
T1 sequence: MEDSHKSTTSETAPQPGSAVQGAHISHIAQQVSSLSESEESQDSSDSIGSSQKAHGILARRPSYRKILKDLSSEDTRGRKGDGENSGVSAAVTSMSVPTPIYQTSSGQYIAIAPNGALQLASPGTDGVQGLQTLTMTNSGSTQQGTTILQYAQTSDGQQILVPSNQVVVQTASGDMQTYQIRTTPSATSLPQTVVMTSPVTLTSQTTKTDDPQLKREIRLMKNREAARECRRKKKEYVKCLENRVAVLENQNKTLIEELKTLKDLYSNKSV
The experiment in a line: competition; 100-fold excess unlabeled AP1 did not diminish ATF1/CRE complex. The settings on record: tags: E. coli pET-11d, DNA-cellulose purified.

B1: AP1 oligonucleotide (dsDNA)
DNA 1: CGCTTGATGAGTCAGCCGGAA
DNA 2: TTCCGGCTGACTCATCAAGCG
In the case of B1, the binding result is reported as “no binding”.
